The text below walks through data of FireProtDB (doi:10.1038/nsb0996-782).

For this data set the following is noted: Escherichia coli (strain K12); pH 5.1; 25 °C; GdnHCl; NMR; Sodium acetate 100mM; whole UniProt chain shown.

B1: Ribonuclease HI wild type, P0A7Y4 (protein)
chain: MLKQVEIFTDGSCLGNPGPGGYGAILRYRGREKTFSAGYTRTTNNRMELMAAIVALEALKEHCEVILSTDSQYVRQGITQWIHNWKKRGWKTADKKPVKNVDLWQRLDAALGQHQIKWEWVKGHAGHPENERCDELARAAAMNPTLEDTGYQVEV
As for B1, the unfolding free energy was found to be 10.5 kcal/mol.
